{"source": "patent US20240287172A1", "about": "(SCIRHOM, published 2024)", "key": {"[1]": {"molecular_target": "T1, miR2-FL-WT-T7 (mouse, UniProt Q80WQ6 1-827)", "T1 construct": "on MEF-DKO cells", "T1 sequence": "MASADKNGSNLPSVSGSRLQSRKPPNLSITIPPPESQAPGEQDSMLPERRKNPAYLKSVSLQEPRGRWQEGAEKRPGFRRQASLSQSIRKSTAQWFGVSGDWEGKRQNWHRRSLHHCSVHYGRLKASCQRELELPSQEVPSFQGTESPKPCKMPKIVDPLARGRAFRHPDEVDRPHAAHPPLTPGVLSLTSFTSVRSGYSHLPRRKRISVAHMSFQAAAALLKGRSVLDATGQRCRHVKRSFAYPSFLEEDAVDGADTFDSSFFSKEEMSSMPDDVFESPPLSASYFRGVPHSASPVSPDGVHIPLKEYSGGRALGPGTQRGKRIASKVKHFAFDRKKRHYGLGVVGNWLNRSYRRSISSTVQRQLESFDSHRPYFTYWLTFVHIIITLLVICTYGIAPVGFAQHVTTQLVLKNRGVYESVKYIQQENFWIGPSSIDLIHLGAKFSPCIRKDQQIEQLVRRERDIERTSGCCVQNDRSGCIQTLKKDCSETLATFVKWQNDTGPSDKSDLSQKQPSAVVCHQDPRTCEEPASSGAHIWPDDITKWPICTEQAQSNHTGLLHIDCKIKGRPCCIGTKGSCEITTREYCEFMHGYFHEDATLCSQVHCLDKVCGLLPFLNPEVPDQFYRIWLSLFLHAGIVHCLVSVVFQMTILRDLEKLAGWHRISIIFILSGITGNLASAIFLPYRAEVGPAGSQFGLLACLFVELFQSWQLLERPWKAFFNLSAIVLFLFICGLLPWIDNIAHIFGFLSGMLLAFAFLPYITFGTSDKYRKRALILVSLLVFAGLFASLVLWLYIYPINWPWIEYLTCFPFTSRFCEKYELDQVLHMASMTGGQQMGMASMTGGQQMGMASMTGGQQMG", "test": "FACS on MEF-DKO-miR2-FL-WT-T7 cells"}, "[2]": {"molecular_target": "T2, hiR2-FL-M534S-T7 (human, UniProt Q6PJF5 1-856)", "T2 sequence": "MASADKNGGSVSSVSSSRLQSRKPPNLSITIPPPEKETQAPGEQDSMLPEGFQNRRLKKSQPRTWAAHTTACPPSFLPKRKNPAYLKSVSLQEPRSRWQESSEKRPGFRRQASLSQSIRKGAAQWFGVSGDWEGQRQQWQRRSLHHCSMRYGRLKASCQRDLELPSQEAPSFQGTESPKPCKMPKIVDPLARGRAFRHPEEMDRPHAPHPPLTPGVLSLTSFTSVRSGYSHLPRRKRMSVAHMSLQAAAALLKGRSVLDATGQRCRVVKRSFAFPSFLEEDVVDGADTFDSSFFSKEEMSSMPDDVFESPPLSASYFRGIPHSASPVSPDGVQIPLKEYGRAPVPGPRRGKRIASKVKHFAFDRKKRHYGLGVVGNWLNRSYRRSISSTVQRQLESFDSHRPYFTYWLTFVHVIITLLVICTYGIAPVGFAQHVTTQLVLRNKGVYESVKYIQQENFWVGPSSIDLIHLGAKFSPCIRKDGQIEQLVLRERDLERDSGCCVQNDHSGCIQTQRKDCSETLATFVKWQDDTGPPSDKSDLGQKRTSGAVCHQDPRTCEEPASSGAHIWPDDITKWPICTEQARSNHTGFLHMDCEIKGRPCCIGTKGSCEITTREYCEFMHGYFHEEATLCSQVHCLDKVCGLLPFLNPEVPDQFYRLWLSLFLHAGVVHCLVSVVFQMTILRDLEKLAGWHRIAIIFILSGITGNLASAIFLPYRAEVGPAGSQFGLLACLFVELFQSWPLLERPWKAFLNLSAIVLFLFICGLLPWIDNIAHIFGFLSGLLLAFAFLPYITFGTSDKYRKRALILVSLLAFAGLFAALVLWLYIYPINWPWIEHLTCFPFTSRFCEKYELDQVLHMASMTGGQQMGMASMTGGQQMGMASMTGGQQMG", "test": "FACS, MEF-DKO cells, 3 µg/ml"}, "[3]": {"molecular_target": "T1, miR2-FL-WT-T7", "test": "FACS, MEF-DKO-miR2-FL-WT-T7 cells", "description": "In brief, immortalized MEF-DKO-EV control cells, MEF-DKO-hiR2-FL-WT-T7 cells and MEF-DKO-miR2-FL-WT-T7 cells were harvested with 10 mM EDTA in PBS, washed and resuspended in FACS buffer (PBS, 3% FBS, 0.05% sodium azide), and seeded in Nunc U-bottom 96-well plates (Thermo Fisher Scientific, USA) at approximately 3×10⁵ cells per well. To pellet cells and remove supernatants, the plates were centrifuged at 1,500 rpm and 4° C. for 3 minutes. For primary staining, cells were resuspended in 100 μl per well of either FACS buffer alone (controls), mouse monoclonal anti-T7 IgG (Merck Millipore, USA) at 3 μg/ml FACS buffer or the purified antibodies 3, 5, 16, 22, 34, 42, 43, 44, 48, and 50 of the invention also at 3 μg/ml FACS buffer and incubated on ice for 1 hour. Afterwards, plates were centrifuged at 1,500 rpm and 4° C. for 3 minutes and washed twice with 200 μl per well of FACS buffer. For secondary staining, cells were spun down and resuspended in 100 μl per well of PE-conjugated goat anti-mouse IgG F(ab′)2 detection fragment (Dianova, Germany) diluted 1:100 in FACS buffer. Protected from light, the cell suspensions were incubated on ice for 1 hour. […] Finally, cells were resuspended in 150 μl per well of FACS buffer and analyzed using a BD Accuri™ C6 Plus flow cytometer (Becton Dickinson, Germany)."}}}
{"binder": "antibody 3 (antibody, V domains shown, mouse IgG, kappa light chain; also called clone #3; purified antibody 3) VH: QVTLKESGPGILQPSQTLSLTCSFSGFSLTTFAMGIGWVRQPSGKGLEWLAHIWWDGEKYNNPVLKSRLTISKDTSKNQVFLRIANVDTPDTATYYCARISSIYYIIDNWGQGTSVTVSS VL: DIVLTQSPATLSVTPGHSVSLSCRASQSISNNLHWYQKKSHESPRLLIKYVSQSISGIPSRFSGSGSGTDFTLSINSVETEDFGMYFCQQSYNWPLTFGAGTKLELK", "values": [{"measurement": "binding result", "setting": "[1]", "value": "no binding (tested: 3 µg/ml)"}]}
{"binder": "antibody 5 (antibody, V domains shown, mouse IgG, kappa light chain; also called clone #5; purified antibody 5) VH: QVTLKESGPGILQPSQTLSLTCSFSGFSLSTFGMGVGWIRQPSGKGLEWLAHIWWDDEKYYNSALKSRLTISKATSKNQAFLKIANVDTADTATYYCARISNYGSNYWYFNVWGTGTTVTVSS VL: QVVLTQSPALMSASPGEKVTMTCSAGSSVSCMYWYQQKPGSSPRVLIYDTSNLASGVPARFTGSGSGTSYSLTISRMEAEDAASYYCQQWNSYPLTFGAGTKLELK", "values": [{"measurement": "loss of binding vs wild type", "setting": "[2]", "value": "≥ 30", "unit": "%"}]}
{"binder": "antibody 48 (antibody, V domains shown, mouse IgG, kappa light chain; also called clone #48; purified antibody 48) VH: QVQLQQSGTELVRPGTSVKVSCKASGYAFTNYLIEWVKQRPGQGLEWIGVINPGSGFTKYNEKFKGKATLTADKSSSTVYMHLSSLTSEDSAVYFCARGLYRAMDYWGQGTSVTVSS VL: DIQMTQSPASQSASLGESVTITCLASQTIATWLAWYQQKPGKSPQLLIYGATTLADGVPSRFSGGGSGTKFSFKISSLQAEDFVSYYCQQLYSTPYTFGGGTKLEIK", "values": [{"measurement": "binding result", "setting": "[3]", "value": "no binding (tested: 3 µg/ml)"}]}
